The target in assay [1] is Drosophila Shaker channel (ShakerIR) (Drosophila) (UniProt P08510).
The target in a further assay is ShakerKD (Drosophila) (UniProt P08510).

Our source for the EC50 of block of K+ currents, two-electrode voltage clamp on Xenopus oocytes values is doi:10.1101/2020.06.15.153577.

Consider Conkunitzin-C1 (peptide), for which the EC50 of block of K+ currents, two-electrode voltage clamp on Xenopus oocytes in assay [1] is 2200 nM; with ShakerKD (Drosophila) it was 108 nM.
In the same order, the values of Conkunitzin-C3 (peptide) are 166 nM and 190 nM.
